# Literature values as cited in publication PMC7570734.
# Where two headings read alike, the source gives them in different places.
# Assays:
# [1] = target: alpha-factor (Saccharomyces cerevisiae) (UniProt P01149)
# [2] = target: alpha-factor (Saccharomyces cerevisiae) (UniProt P01149); remark: listed apart in the source
substance,measurement,setting,value
Ste2p (from UniProt D6VTK4),Kd,[1],17 nM
same,Kd,[2],> 150 nM
